Data taken from publication PMC10639053.

Assays:
[1] = molecular target: unmodified mono-nucleosome (human) (UniProt P0C0S8); experiment: MST; 5' FAM-labelled nucleosomes (20 nM) with a dilution series of protein (0.122-4000 nM or 0.122-2000 nM), 50 mM HEPES pH 7.5, 150 mM NaCl, 0.1 mg/ml BSA, 10% glycerol, 0.02% NP40, 1 mM DTT, room temperature 30 min; one-site total binding fit
[2] = system: BRCA1 deltaExon11;BARD1 full length (human;human); experiment: MST; conditions: Kd in Table S2, not in material, EMSA: 50 mM Tris pH 7.5, 150 mM NaCl, 0.02% NP40, 0.1 mg/ml BSA, 10% glycerol, 1 mM DTT, 8% sucrose, on ice 1 h, MST: 50 mM HEPES pH 7.5, 150 mM NaCl
6xHis-MBP–BARD1^425–777 = 6xHis-MBP–BARD1^425–777 (UniProt Q99728); experiment: MST; conditions: read at the highest titrant concentration (4000 nM 6xHis-MBP–BARD1ARD-BRCTs); 20 nM 5′ FAM-labelled nucleosomes; amplitude-normalised; mean of three …; parent: est. 10; read off a plot
[3] = molecular target: human Flag-BRCA1^ΔExon11:6xHis-FL BARD1 complex, P38398-5;Q99728; experiment: MST; conditions: read at the highest titrant concentration (2000 nM Flag-BRCA1ΔExon11:6xHis–BARD1); 20 nM 5′ FAM-labelled nucleosomes; amplitude-normalised; mean of three …; parent: est. 14; read off a plot

Question: For “human Flag-BRCA1^ΔExon11:6xHis-FL BARD1 complex (from UniProt P38398-5 1-721; Q99728 1-777)”, which affinity relative to BARD1^ARD-BRCTs, fold [1] is on record?
Answer: 2 fold

Question: How did the fold affinity relative to BARD1 ARD-BRCTs (fold affinity vs BARD1 ARD-BRCTs) [2] turn out when unmodified mono-nucleosome was run?
Answer: 2

Question: What does the source list for “unmodified mono-nucleosome (from UniProt P0C0S8;P33778;P68431;P62805) H2A:E61A; H2A:E91A; H2A:E92A; H2B:E105A”?
Answer: response (Fnorm [1/1000]) (6xHis-MBP–BARD1^425–777): 1.5; response (Fnorm [1/1000]) [3]: 5.7
